Experimental data taken from US20190248902A1 (published 2019).
Positions count from the first letter of the chain named.

T1: Soluble ASGR-1 (human, UniProt P07306 62-291, biotinylated)
T1 construct: Soluble recombinant protein; also called recombinant, soluble ASGR-1 biotinylated protein
T1 sequence: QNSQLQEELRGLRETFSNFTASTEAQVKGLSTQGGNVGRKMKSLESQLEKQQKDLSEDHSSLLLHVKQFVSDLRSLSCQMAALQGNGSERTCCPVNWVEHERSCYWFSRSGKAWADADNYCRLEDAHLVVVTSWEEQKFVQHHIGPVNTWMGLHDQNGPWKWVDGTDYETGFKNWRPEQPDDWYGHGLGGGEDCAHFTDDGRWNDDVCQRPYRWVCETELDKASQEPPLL

B1: 190F8 (antibody, V domains shown)
VH: QVQLVESGGGVVQPGRSLRLSCAASGFTFSTYGMHWVRQAPGKGLEWVAVIWYDGSNKNYADSVKGRFTISRDNSKNTLYLQMNSLRAEDTAVYYCARDQGVGYDGLDVWGQGTTVTVSS
VL: DIQMTQSPSSLSASVGDRVTITCRTSQGIGNYLAWFQQKPGKAPKSLLYKASSLQSGVPSKFSGSGSGTDFTLTISSLQPEDFATYYCQQYMTYPLTFGGGTKVEIK
notes: Tested as hybridoma supernatant at normalized concentration
B2: 191G1 (antibody, V domains shown)
VH: B1 VH with T31S, K58E, N59H, Q100R, D105Y
VL: B1 VL with T25A, G30S, L48I, K50A, Q90H, M92L
notes: as for B1
B3: 191G10 (antibody, V domains shown)
VH: B1 VH with T31S
VL: B1 VL with N31K, A51V
notes: as for B1
B4: 198G3 (antibody, V domains shown)
VH: B1 VH with R19K, S56T, Y80C
VL: B1 VL with T5A, N31K, S56G
notes: as for B1
B5: 194C1 (antibody, V domains shown)
VH: B1 VH with T31S, K58E, N59H, D99N, Q100R, D105Y
VL: B1 VL with T25A, G30S, L48I, K50A, Q89L, Q90H, M92L
notes: as for B1
B6: 197G3 (antibody, V domains shown)
VH: B1 VH with A23V, T31S, Y32H, Q100P, G101S, L107M
VL: DIQMTQSPSSLSASVGDRVTITCRASQGIGNHLAWFQQKPGKAPKSLIYAASSLQSGVPSKFSGSRSGTDFSLTISSLQPEDFATYYCQQYSNYPVTFGPGTKVDIK
notes: as for B1
B7: 75G3 (antibody, V domains shown)
VH: QVQLQQWGAGLLKPSETLSLTCAVYGGSLSGSYWSWIRQPPGKGLEWIGEINLSGSTNYNPSLKSRVTISVDTSKSQFSLTLRSVTAADTAVYYCARDYGGLDYWGQGTLVTVSS
VL: EIVLTQSPGTLSLSPGERATLSCRARQNVDSSYLAWYQQKPGQAPRLLIYGASSRATGIPDRFSGSGSGTDFTLTISRLEPEDFAVFYCQQYERSPWTFGQGTKVEIK
notes: as for B1
B8: 218G4 (antibody, V domains shown)
VH: QVQLVESGGGVVQPGRSLRLSCAASGFTFSSYGLHWVRQAPGKGLEWVAVIWYDGSNKYYADSVKGRFTISRDNSKNTLYLQMNSLRVEDTAVYYCANWYYYYYGMDVWGQGTTVTVSS
VL: QSVLTQPPSVSAAPGQKVTISCSGSSSNIGNNYVSWYQQLPGTAPKLLLYDSNKRPSGIPARFSGSKSGTSATLGITGLQTGDEADYYCGTWDSSLNTVVFGGGTKLTVL
notes: as for B1
B9: 193E7 (antibody, V domains shown)
VH: QVQLQQWGAGLLKPSETLSLTCAVYGGSFSGYFWTWIRQPPGKGLEWIGEINHSGSTNYNPSLKSRVTISVDTSKNQFSLKLSSVTAADTAVYYCARDYGADYWGQGTLVAVSA
VL: DIQMTQSPSSLSASVGDRVTITCRASQGIRNDLGWYQQKPGKAPKRLIYSASSLQRGVPSRFSGSGSGTEFTLTISSLQPEDFATYYCLQHKRYPLTFGGGTKVEIK
notes: as for B1
B10: 198D2 (antibody, V domains shown)
VH: QVQLVESGGGVVQPGRSLRLSCAASGFTFRSYGMHWVRQAPGKGLEWVAVIIYDGSYKYYADSVKGRFTISRDNSKNTLYLQMNSLRAEDTAVYYCARTYSGGMDVWGQGTTVTVSS
VL: B8 VL with N31S, L47V, L49I, S52N, A61D, S95R, T98V, V99G
notes: as for B1
B11: 202A3 (antibody, V domains shown)
VH: QVQLEQSGAEVKKPGASVKVSCKASGYTFTSYDINWVRQATGQGLEWLGWMNPKRGNTGYAQKFQGRVTMTRNTSISTAHMELSSLRSEDTAVYYCARGRYSREDYYYYYDMDVWGQGTTVTVSS
VL: DIQMSQSPSSLSASVGDRVTITCRASQGIRNDLGWYQQKPGKAPKRLICAASRLQSGVPSRFSGSGSGTEFTLTISSLQPEDFAIYYCLQHHDYPFTFGPGTKVDIK
notes: as for B1

molecular target: T1, Soluble ASGR-1; test: limited antigen binding assay; biotinylated soluble ASGR-1 coated at 2.5 ng/mL on LumAvidin beads, FACS
Description: To assess antibody and antigen interaction strength (relative binding affinity), ASGR-1 specific, ligand competing antibody hybridoma supernatants were tested in a limiting antigen binding assay. Titrated amounts of recombinant, soluble ASGR-1 biotinylated protein was incubated with streptavidin-coated LumAvidin Beads® for 45 minutes in the dark at room temperature and washed twice. Beads were resuspeneded in FACS buffer containing Stabilguard® and 0.05% Sodium Azide. Antigen-bound beads were then incubated with normalized hybridoma supernatant sample or controls for 18 hours in the dark at room temperature, washed twice, incubated with Alexa Fluor® 488 IgG fragment-specific detection antibody for 15 minutes in the dark at room temperature, washed once and finally resuspended in FACS buffer. Samples were analyzed using an Intellicyt iQue™ Screener Platform. FACS buffer supplemented with 1 mM Calcium Chloride was used in all steps. […] In this assay method, the antibody binding signal correlates with antibody affinity. Antibody binding data for a representative antigen coating concentration that fell in the linear range of the instrument signal detection is shown in Table 7.2. The degree of antibody binding to the target (ASGR-1) correlates with the measured fluorescent intensity and thus allows a relative comparison of affinities across the panel.

Point of comparison: B3, “FACS Geomean” value 24200 FACS Geomean. Against it:
- B1 — lower, 13900 FACS Geomean
- B2 — lower, 9550 FACS Geomean
- B4 — higher, 26000 FACS Geomean
- B5 — lower, 16900 FACS Geomean
- B6 — lower, 17700 FACS Geomean
- B7 — higher, 35800 FACS Geomean
- B8 — lower, 15100 FACS Geomean
- B9 — lower, 18300 FACS Geomean
- B10 — lower, 1870 FACS Geomean
- B11 — lower, 2150 FACS Geomean
